The assay has as its target L chains of normal human 7S γ-globulin (human). The assay is described as follows: AUC.

On to “L chains of normal human 7S γ-globulin (natural protein)”, for which the per cent of the material at the molecular weight of the dimer was 84 per cent.

These data come from PMC2137388.
